# Source: US20240425587A1 (Alector, published 2024)
# B1: D7 (antibody, V domains shown)
# VH: QVQLKESGPGLVAPSQSLSITCTVSGFSLTSYAISWVRQPPGKGLEWLGIIWTGGDTNYNSGLKSRLSITKDNSKSQVFLKMNSLQTDDTSRYYCARNSLFYGITPYYFDYWGQGTTLTVSS
# VL: DIVLTQSPATLSVTPGDSVSLSCRASQSIRNDLHWYQQKSHESPRLLIKYASQSISGIPSRFSGSGSGTDFTLTINVLETEDFGMYFCQQSNGWPLTFGAGTKLELK
# notes: second hybridoma campaign
# B2: D1 (antibody, V domains shown)
# VH: QVQLQQSGVELARPGASVKLSCKASGYNFTSYGINWVKQRTGQGLEWIGKSYPTSGNNYYNEKFKGKATVTADKSSSTAYMELRSLTSEDSAVYFCGVWYGSLFAHWGQGTLVTVTA
# VL: DIVMTQSQKFMSTSVGDRVRVTCKASQNVGFNVAWYQQKPGQSPKVLIYSASYRYSGVPDRFTGSGSGTDFTLTITNVQSEDLAEYFCHQYNNFPFTFGSGTKLEIK
# notes: second hybridoma campaign
# B3: A9 (antibody, V domains shown)
# VH: QVQLVQSGAEVKKPGSSVKVSCKASGYTFTDYAISWVRQAPGQGLEWMGGITPVFGTPSYAQKFQGRVTITADESTSTAYMELSSLRSEDTAVYYCARGWELRRDPFDYWGQGTLVTVSS
# VL: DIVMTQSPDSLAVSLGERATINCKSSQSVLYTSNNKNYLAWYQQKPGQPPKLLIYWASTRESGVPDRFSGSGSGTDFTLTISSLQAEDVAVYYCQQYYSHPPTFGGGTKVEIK
# notes: phage campaign
# B4: A16 (antibody, human IgG1, kappa, L234A L235A, V domains shown)
# VH: QVQLVQSGAEVKKPGSSVKVSCKASGYNFLNYDVNWVRQAPGQGLEWMGGIIPIFGTANYAQKFQGRVTITADESTSTAYMELSSLRSEDTAVYYCATGVGAGWFDPWGQGTLVTVSS
# VL: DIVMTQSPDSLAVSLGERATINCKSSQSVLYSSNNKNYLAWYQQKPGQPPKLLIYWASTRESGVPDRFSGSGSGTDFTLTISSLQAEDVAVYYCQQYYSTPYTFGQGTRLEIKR
# B5: E21 (antibody, V domains shown)
# VH: QVQLVQSGAEVKKPGSSVKVSCKASGYTFSNYDINWVRQAPGQGLEWMGGIIPIFGTANYALKFQGRVTITADESTSTAYMELSSLRSEDTAVYYCARGGPWLYFDYWGQGTLVTVSS
# VL: DIQMTQSPSSLSASVGDRVTITCRASQSISTYLNWYQQKPGKAPKLLIYAASTLQSGVPSRFSGSGSGTDFTLTISSLQPEDFATYYCQQSYSSPLTFGQGTKLEIK
# notes: phage campaign
# B6: A10 (antibody, V domains shown)
# VH: QVQLVQSGAEVKKPGASVKVSCKASGYTFTDYYIHWVRQAPGQGLEWMGWMNPNSGNTGYAQKFQGRVTMTRDTSTSTVYMELSSLRSEDTAVYYCAREGSSGWYVDYWGQGTLVTVSS
# VL: DIQMTQSPSSLSASVGDRVTITCQASQDISQFLNWYQQKPGKAPKLLIYDAYSLQSGVPSRFSGSGSGTDFTLTISSLQPEDFATYYCQQANSFPLTFGQGTKVEIK
# notes: phage campaign
# Molecular target: T1, PILRA Fc (soluble human PILRA) (human, UniProt Q9UKJ1 20-197, limits assumed)
# T1 construct: also called soluble PILRA; not shown: Fc part, detected with anti-human IgG
# T1 sequence (Q9UKJ1 20-197 limits assumed): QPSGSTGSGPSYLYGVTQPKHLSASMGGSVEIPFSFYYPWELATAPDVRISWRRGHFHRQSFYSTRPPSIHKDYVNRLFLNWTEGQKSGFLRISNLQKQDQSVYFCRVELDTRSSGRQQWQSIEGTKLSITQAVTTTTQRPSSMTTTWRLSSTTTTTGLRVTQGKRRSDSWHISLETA
# Test: flow cytometry; blocking of PILRA Fc binding to human CD3+ T cells (Donor 1019)
# Protocol: The ability of conditioned media samples containing antibodies to inhibit the binding of PILRA Fc to human CD3+ T cells was assessed. Briefly, conditioned media samples containing antibodies were incubated with 1.25 ug/ml PILRA Fc for 30 min at 4° C. and then added to human T cells. After 30 minutes incubation at 4° C., cells were washed, and bound PILRA Fc was detected with anti-human IgG Alexa 647. Cells were analyzed by flow cytometry on FACS Canto II, and for all cell lines, the amount of PILRA Fc binding (MIFI) and the percentage of PILRA Fc binding in the presence of conditioned media relative to PILRA Fc binding alone was calculated. Several antibodies inhibited binding of PILRA Fc to human T cells, and a few antibodies enhanced PILRA-Fc binding to T cells. Antibodies that show enhancement in this assay may block cis inhibition to promote trans interactions or may allosterically activate to enhance trans interactions without blocking cis.
row,Binder,IC50 [mg/L]
1,B1,5.75
2,B2,1.6

# Molecular target: T2, human PILRA, G78 variant, ectopically expressed on 293 cells (human, UniProt Q9UKJ1 20-303)
# T2 construct: the cells are labelled G78; also called hA G78 OE; hA
# T2 sequence (Q9UKJ1 other isoform, or with tags, fused parts or gaps mutant): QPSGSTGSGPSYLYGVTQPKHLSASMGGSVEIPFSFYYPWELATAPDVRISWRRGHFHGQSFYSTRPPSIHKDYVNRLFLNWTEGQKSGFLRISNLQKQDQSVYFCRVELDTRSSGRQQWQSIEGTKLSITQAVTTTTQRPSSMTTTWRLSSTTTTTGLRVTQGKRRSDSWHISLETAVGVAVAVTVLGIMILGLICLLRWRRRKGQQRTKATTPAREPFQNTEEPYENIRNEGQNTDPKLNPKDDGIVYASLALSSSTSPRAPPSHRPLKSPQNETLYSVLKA
# Test: flow cytometry, 293 cells expressing target
# Protocol: (§1) Briefly, conditioned media containing antibodies were incubated with 293 cells for 30 min at 4° C., washed twice, and then detected with anti-mouse IgG Alexa 647.
row,Binder,EC50 [mg/L]
1,B1,0.3
2,B3,0.8
3,B4,0.2
4,B5,0.7
5,B6,1.1
6,B2,0.3

# Molecular target: T3, murine PILRB, ectopically expressed on 293 cells (murine, UniProt Q2YFS2 29-224)
# T3 construct: whole, on cells; also called mB
# T3 sequence (Q2YFS2 29-224): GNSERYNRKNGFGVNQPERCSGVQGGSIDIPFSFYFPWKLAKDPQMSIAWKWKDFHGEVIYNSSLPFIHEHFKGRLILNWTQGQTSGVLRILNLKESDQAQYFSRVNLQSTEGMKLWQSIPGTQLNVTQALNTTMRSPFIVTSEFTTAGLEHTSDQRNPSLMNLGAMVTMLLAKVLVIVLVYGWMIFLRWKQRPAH
# Test: flow cytometry, 293 cells expressing target
# Protocol: as §1
row,Binder,binding result
1,B1,no binding
2,B3,no binding
3,B4,no binding
4,B5,no binding
5,B6,no binding
6,B2,no binding

# Molecular target: cynomolgus PILRA, ectopically expressed on 293 cells (cynomolgus monkey)
# Sequence (chain, as listed by the source): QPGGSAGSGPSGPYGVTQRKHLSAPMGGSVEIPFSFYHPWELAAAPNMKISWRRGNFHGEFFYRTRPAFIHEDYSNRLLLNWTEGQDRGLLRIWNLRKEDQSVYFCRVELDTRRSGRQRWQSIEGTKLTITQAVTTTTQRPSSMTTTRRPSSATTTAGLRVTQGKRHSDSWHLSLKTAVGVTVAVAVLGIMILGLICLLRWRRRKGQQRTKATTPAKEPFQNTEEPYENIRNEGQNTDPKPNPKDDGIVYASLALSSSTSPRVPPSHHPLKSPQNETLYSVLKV
# Test: flow cytometry, 293 cells expressing target
# Protocol: as §1
Binder,EC50 [mg/L],binding result
B1,1,
B3,14.6,
B4,0.2,
B5,,no binding
B6,17.3,
B2,,no binding

# Molecular target: T4, human PILRB, ectopically expressed on 293 cells (human, UniProt Q9UKJ0 20-227)
# T4 construct: also called hB
# T4 sequence (Q9UKJ0 20-227): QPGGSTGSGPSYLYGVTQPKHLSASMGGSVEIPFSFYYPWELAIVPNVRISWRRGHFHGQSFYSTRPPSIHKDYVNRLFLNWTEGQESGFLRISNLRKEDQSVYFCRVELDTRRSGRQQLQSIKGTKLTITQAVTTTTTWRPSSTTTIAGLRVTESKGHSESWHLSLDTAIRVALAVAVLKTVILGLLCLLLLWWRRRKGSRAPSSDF
# Test: flow cytometry, 293 cells expressing target
# Protocol: as §1
Binder,EC50 [mg/L],binding result
B1,21.2,
B3,,no binding
B4,,no binding
B5,3.4,
B6,,no binding
B2,,no binding

# Molecular target: T5, murine PILRA, ectopically expressed on 293 cells (murine, UniProt Q2YFS3 32-302)
# T5 construct: also called mA
# T5 sequence (Q2YFS3 32-302): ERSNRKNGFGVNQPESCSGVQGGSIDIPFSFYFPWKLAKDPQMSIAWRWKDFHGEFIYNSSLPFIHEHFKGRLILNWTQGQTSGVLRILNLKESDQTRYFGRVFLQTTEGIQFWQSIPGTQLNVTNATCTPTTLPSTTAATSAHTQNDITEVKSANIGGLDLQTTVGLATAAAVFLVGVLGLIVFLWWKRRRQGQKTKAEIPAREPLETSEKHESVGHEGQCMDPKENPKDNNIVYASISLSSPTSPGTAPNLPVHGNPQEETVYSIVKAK
# Test: flow cytometry, 293 cells expressing target
# Protocol: as §1
row,Binder,binding result
1,B1,no binding
2,B3,no binding
3,B4,no binding
4,B5,no binding
5,B6,no binding
6,B2,no binding

# Molecular target: T6, human PILRA, c-term His-Avi tag (human, UniProt Q9UKJ1 20-197, limits assumed)
# T6 construct: not shown: C-terminal His-Avi tag
# T6 sequence (Q9UKJ1 20-197 limits assumed): as the sequence (Q9UKJ1 20-197 limits assumed) above
# Test: SPR (Biacore), antibody captured, PILRA as analyte
# Protocol: Experiments were performed to determine the kinetics of anti-PILRA antibody binding to human […]. The assay is depicted in FIG. 6. A rabbit anti-PILRA was used as a positive control, and H1 LALAPS was used as a negative control. Human PILRA (human PILRA, c-term His-Avi tag, 0.68 mg/mi) was used as the antigen. The running buffer was HBSTE/0.5% BSA, pH 7.4, and the regeneration solution was 10 mM glycine-HCl (pH 2.1). In the assay, antibodies were captured at 10 μg/ml by immobilized anti-huFc or anti-msFc on a Biacore CM5 chip, and human PILRA flowed at 33, 100, and 300 nM. The surface was regenerated after each analyte, and all curves were double-referenced with buffer injections.
Binder,Kd [µM],koff [s⁻¹],kon [M⁻¹ s⁻¹]
B3,0.15,0.011,70000
B4,0.047,0.0042,90000
B5,0.0513,0.0061,120000
B6,0.0429,0.0054,130000

# Molecular target: T2, human PILRA, G78 variant, ectopically …
# Test: flow cytometry; blocking of NPDC1-hIgG1 binding to 293 cells expressing human PILRA G78
row,Binder,IC50 [mg/L]
1,B3,0.6
2,B4,0.38
3,B5,0.6
4,B6,0.48
